According to publication PMC5851525, “Quantitative analysis of the impact of a human pathogenic mutation on the CCT5 chaperonin subunit using a proxy archaeal ortholog^” (Biochemistry and Biophysics Reports, 2017):
Blank lines part the entries; values can stand above or below the compound they belong to.

Assays:
[1] = target: T1, Pf-CD1 (Pyrococcus furiosus, UniProt Q8TZL6, DEL/LAST/OF/RESIDUES); assay: isothermal titration calorimetry, one set of sites model; type: binding
T1 construct: gene PF1974; C-terminal deletion (last 22 residues of Pf-Cpn removed); expressed in E. coli BL21(DE3) from pET33b; homo-hexadecamer (two octameric rings)
T1 sequence (Q8TZL6 1-527): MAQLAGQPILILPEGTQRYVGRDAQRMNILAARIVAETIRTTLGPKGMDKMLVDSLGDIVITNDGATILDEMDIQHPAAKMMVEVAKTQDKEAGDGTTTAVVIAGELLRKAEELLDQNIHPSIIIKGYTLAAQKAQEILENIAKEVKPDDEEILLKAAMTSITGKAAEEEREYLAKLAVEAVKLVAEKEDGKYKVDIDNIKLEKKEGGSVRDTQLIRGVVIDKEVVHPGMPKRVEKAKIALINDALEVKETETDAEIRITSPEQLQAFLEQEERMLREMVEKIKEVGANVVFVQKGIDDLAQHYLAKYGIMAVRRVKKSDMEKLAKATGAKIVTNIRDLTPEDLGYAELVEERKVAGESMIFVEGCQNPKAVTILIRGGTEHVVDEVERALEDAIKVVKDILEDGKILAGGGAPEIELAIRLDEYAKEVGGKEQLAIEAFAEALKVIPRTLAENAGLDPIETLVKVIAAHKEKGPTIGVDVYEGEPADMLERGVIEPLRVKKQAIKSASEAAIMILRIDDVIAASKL
From the text: (§1) isothermal titration calorimetry, one set of sites model on Pf-CD1

[2] = target: T2, Pf-CD1 (Pyrococcus furiosus, UniProt Q8TZL6, I138H); assay: as above; type: binding
T2 construct: gene PF1974; C-terminal deletion (last 22 residues of Pf-Cpn removed); expressed in E. coli BL21(DE3) from pET33b; homo-hexadecamer (two octameric rings)
From the text: as §1

[3] = target: T3, Pf-CD1 (Pyrococcus furiosus, UniProt Q8TZL6, I138R); assay: as above; type: binding
T3 construct: gene PF1974; C-terminal deletion (last 22 residues of Pf-Cpn removed); expressed in E. coli BL21(DE3) from pET33b; homo-hexadecamer (two octameric rings)
From the text: as §1

[4] = target: Pf-CD1 Ile138His (Pyrococcus furiosus); assay: ITC; dilution experiment, 18 successive injections, 25 °C; fit to a two-state hexadecamer-monomer equilibrium (hexadecamer to monomers); parameters per subunit
[5] = target: Pf-CD1, Pyrococcus furiosus chaperonin subunit (Pf-Cpn) with the last 22 amino acids deleted (Pyrococcus furiosus); assay: as above
[6] = target: Pf-CD1 Ile138Arg (Pyrococcus furiosus); assay: as above

Compound: Nc1ncnc2c1ncn2[C@@H]1O[C@H](COP(=O)(O)OP(=O)(O)OP(=O)(O)O)[C@@H](O)[C@H]1O [ATP]
Kd [1]: 0.32 ± 0.05 µM
Kd [2]: 0.3 ± 0.02 µM
Kd [3]: 0.2 ± 0.01 µM

Kd [4]: 0.43 µM
dH of dissociation (∆Hd) [4]: -250 kcal/mol
stoichiometry N [4]: 16
Compound: Pf-CD1 Ile138His (domain or fragment)

Kd [5]: 0.31 µM
dH of dissociation (∆Hd) [5]: -350 kcal/mol
stoichiometry N [5]: 16
Compound: Pf-CD1, Pyrococcus furiosus chaperonin subunit (Pf-Cpn) with the last 22 amino acids deleted (domain or fragment)

Kd [6]: 0.1 µM
dH of dissociation (∆Hd) [6]: -49 kcal/mol
stoichiometry N [6]: 16
Compound: Pf-CD1 Ile138Arg (domain or fragment)
